The text below walks through data of patent publication US20240002498A1 (TENEOBIO, published 2024).

For assay [1], the target named is T1, human Folate Receptor Alpha (FOLR1) on cells (human, UniProt P15328 25-234).
T1 construct: whole, on cells; Endogenous on IGROV-1, OVCAR-3, SKOV-3, HT-29 cells; transfected on CHO cells; the cell is named under assay; also called FRα; FRa
Briefly: flow cytometry, IGROV-1 cells.

For assay [2], the target named is T2, cyno FOLR1 on CHO cells (cyno (Cynomolgus macaque), UniProt A0A2K5U044 25-234).
T2 construct: whole, on cells; also called cyFOLR1
The experiment in a line: cell binding, CHO cells stably expressing cyno FOLR1.

Assay [3] concerns the target T3, CHO_huFOLR2 (human, UniProt P14207).
T3 construct: stably expressed on CHO cells; also called human FOLR2 on CHO cells; folate receptor beta
Briefly: flow cytometry on CHO cells stably expressing human FOLR2, MFI fold over background. How it is done: Anti-FOLR1 HCAb binding to CHO cells stably expressing human FOLR2 (also known as folate receptor beta, FRβ), and CHO cells stably expressing human IZUMO1R (also known as folate receptor delta, FOLR4, FRδ, JUNO) was analyzed for a number of different clones. Data are presented in FIG. 2, panels A-B, as MFI fold over background. Insets show binding of positive control anti-FOLR2 and anti-IZUMO1R antibodies, respectively, in dark grey, compared to the respective isotype control in light grey.
(In flow cytometry, cells or beads pass a laser one at a time.)

Assay [4] deals with T2, cyno FOLR1 on CHO cells. The experiment in a line: flow cytometry, CHO cells stably expressing cyno FOLR1.
The target of assay [5] is T1, human Folate Receptor Alpha (FOLR1) on …. Briefly: flow cytometry, CHO cells stably expressing human FOLR1.
Assay [6] has as its target recombinant human FOLR1 (human, UniProt P15328 25-234). The experiment in a line: BLI, Octet QK-384, recombinant human FOLR1. How it is done:
As used herein, the “Kd” or “Kd value” refers to a dissociation constant determined by BioLayer Interferometry, using an Octet QK384 instrument (Fortebio Inc., Menlo Park, CA) in kinetics mode. For example, anti-mouse Fc sensors are loaded with mouse-Fc fused antigen and then dipped into antibody-containing wells to measure concentration dependent association rates (kon). Antibody dissociation rates (koff) are measured in the final step, where the sensors are dipped into wells containing buffer only. The Kd is the ratio of koff/kon. (For further details see, Concepcion, J, et al., Comb Chem High Throughput Screen, 12 (8), 791-800, 2009).
Table 17 summarizes affinity and epitope bin information for anti-FOLR1 heavy chain antibodies (HCAbs). Column 1 indicates the clone ID of the HCAb. Column 2 indicates the affinity of the HCAb to recombinant human FOLR1 as measured by Bio-layer interferometry (BLI) using an Octet QK-384. Column 3 indicates the epitope bin of HCAb as determined by a competition BLI binding experiment using an Octet QK-384.

In assay [7] the target is T1, human Folate Receptor Alpha (FOLR1) on …. The experiment in a line: cell binding, OVCAR-3 cells.
For assay [8] the target is unchanged. Briefly: cell binding, IGROV-1 cells.
Assay [9] shares this target. The experiment in a line: cell binding, CHO cells stably expressing human FOLR1.
Assay [10] deals with T4, mouse FOLR1 on CHO cells (mouse, UniProt P35846 25-232).
T4 construct: whole, on cells; also called msFOLR1
The experiment in a line: cell binding, CHO cells stably expressing mouse FOLR1.

Numbering of substitutions follows the chain as printed.

T3 sequence (P14207 17-230 limits assumed): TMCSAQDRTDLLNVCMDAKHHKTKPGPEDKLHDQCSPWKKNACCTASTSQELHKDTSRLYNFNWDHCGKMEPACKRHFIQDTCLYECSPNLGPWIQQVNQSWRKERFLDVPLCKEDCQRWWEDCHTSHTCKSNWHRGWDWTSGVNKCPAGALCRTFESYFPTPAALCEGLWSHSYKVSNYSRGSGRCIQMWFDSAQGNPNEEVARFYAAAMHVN
Sequence of recombinant human FOLR1 (P15328 25-234 limits assumed): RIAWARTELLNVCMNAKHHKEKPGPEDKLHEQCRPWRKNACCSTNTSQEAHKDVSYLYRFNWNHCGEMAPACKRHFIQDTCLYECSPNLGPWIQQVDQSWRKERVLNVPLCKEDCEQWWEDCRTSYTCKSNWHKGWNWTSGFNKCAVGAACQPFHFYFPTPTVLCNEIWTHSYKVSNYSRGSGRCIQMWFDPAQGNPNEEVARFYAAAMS
T1 sequence (P15328 25-234): as the sequence (P15328 25-234 limits assumed) above
T2 sequence (A0A2K5U044 entry or part of it): as the sequence (P15328 25-234 limits assumed) above, with I2T, W4R, R37K, A146P, H171Y counted along it
T4 sequence (P35846 25-232): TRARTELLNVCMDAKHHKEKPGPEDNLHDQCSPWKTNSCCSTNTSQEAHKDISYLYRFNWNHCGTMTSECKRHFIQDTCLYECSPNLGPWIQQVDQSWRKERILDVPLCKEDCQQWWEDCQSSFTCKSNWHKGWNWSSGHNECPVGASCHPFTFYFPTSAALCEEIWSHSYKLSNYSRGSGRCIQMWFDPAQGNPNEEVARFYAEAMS

B1: anti-FOLR1 heavy chain antibody (HCAb, UniAb) clone ID 352391 (antibody, V domains shown)
VH: EVQLVESGGGLVQPGGSLRLSCAASGFSFSSYSMKWVRQAPGKGLEWVSYISSSSDTIEYADSVKGRFTISRDNAKNSLYLQMNSLRDEDTAVYYCASVGLDFDYRGQGTLVTVSS
notes: Heavy chain-only antibody (no light chain), F18 family
Usually EC50 stands for the midpoint of the concentration-response curve. Read a high EC50 as a need for much substance. As usually defined, the Kd is a measure of binding affinity in units of concentration. Regarding B1, the entries for the “fold over background MFI” value in assay [1], in assay [4] and in [5] were 646 fold over background, 198 fold over background and 944 fold over background, respectively. For the same molecule, the EC50 came out at 2.7 nM in assay [2], 2.8 nM in assay [7], 2.8 nM in assay [8] and 5.5 nM in [9]. Besides, the binding result in assay [3] is on record as “no binding (tested: 100 nM)”. For the same molecule, the Kd in assay [6] stood at 34.8 nM.

B2: anti-FOLR1 heavy chain antibody (HCAb, UniAb) clone ID 358676 (antibody, V domains shown)
VH: B1 VH with D88A
notes: as for B1
Consider B2, for which the “fold over background MFI” value in assay [4] was found to be 717 fold over background; in [5], 980 fold over background.

B3: anti-FOLR1 heavy chain antibody (HCAb, UniAb) clone ID 352496 (antibody, V domains shown)
VH: B1 VH with Q13K
notes: as for B1
On to B3, for which the “fold over background MFI” value in [1] was 1740 fold over background; in assay [4] it was 157 fold over background; in [5], 1410 fold over background. The EC50 in [2] is 4.3 nM; in assay [7], 1.1 nM; in [8], 3.8 nM; in [9], 3.5 nM. For the same molecule, the binding result in assay [3] is “no binding (tested: 100 nM)”. For the same molecule, the Kd in [6] came out at 41.8 nM.

B4: anti-FOLR1 heavy chain antibody (HCAb, UniAb) clone ID 352372 (antibody, V domains shown)
VH: B1 VH with D102E
notes: as for B1
With B4, the “fold over background MFI” value in [1] worked out at 506 fold over background; in [4] it was 123 fold over background; in assay [5], 1130 fold over background. Further, the EC50 amounted to 3.4 nM in [2], 4.9 nM in assay [7], 3.6 nM in [8] and 4.6 nM in assay [9]. For the same molecule, the binding result in assay [3] is reported as “no binding (tested: 100 nM)”. Also, the Kd in assay [6] came to 52.7 nM.

B5: anti-FOLR1 heavy chain antibody (HCAb, UniAb) clone ID 352365 (antibody, V domains shown)
VH: B1 VH with D56S, S98T
notes: as for B1
Regarding B5, the “fold over background MFI” value in assay [1] worked out at 594 fold over background; in assay [4] it was 97.4 fold over background; in assay [5], 906 fold over background. Besides, the results for the EC50 in assay [2], in [8] and in assay [9] were 3.3 nM, 4.6 nM and 3.8 nM, respectively. Further, in assay [3], the binding result is recorded as “no binding (tested: 100 nM)”. Further, the Kd in [6] came to 125 nM.

B6: anti-FOLR1 heavy chain antibody (HCAb, UniAb) clone ID 352491 (antibody, V domains shown)
VH: B1 VH with D62G
notes: as for B1
For the molecule B6, the “fold over background MFI” value was 1640 fold over background in assay [1], 159 fold over background in assay [4] and 1480 fold over background in assay [5]. Also, the EC50 is 2.1 nM in assay [2], 3.3 nM in [7], 5 nM in assay [8] and 4.3 nM in assay [9]. In addition, the binding result in assay [3] is given as “no binding (tested: 100 nM)”. Besides, the Kd in [6] is 37.4 nM.

B7: anti-FOLR1 heavy chain antibody (HCAb, UniAb) clone ID 358664 (antibody, V domains shown)
VH: B1 VH with E46D
notes: as for B1
Turning to B7, the figures for the “fold over background MFI” value in [4] and in assay [5] were 729 fold over background and 1470 fold over background, respectively.

B8: anti-FOLR1 heavy chain antibody (HCAb, UniAb) clone ID 352564 (antibody, V domains shown)
VH: B1 VH with S52T, D56S, D102E
notes: as for B1
For B8, the figures for the “fold over background MFI” value in assay [1], in assay [4] and in assay [5] were 1790 fold over background, 84.5 fold over background and 816 fold over background, respectively. The EC50 worked out at 5.7 nM in assay [2], 32.6 nM in assay [7], 3.7 nM in assay [8] and 5.4 nM in [9]. The binding result in [3] is listed as “no binding (tested: 100 nM)”. For the same molecule, the Kd in [6] turned out to be 81.1 nM.

B9: anti-FOLR1 heavy chain antibody (HCAb, UniAb) clone ID 352672 (antibody, V domains shown)
VH: B1 VH with S53R, S98T
notes: as for B1
Consider B9, for which the “fold over background MFI” value in [1] turned out to be 2300 fold over background; in [4], 623 fold over background; in assay [5], 1070 fold over background. Further, the EC50 worked out at 2.9 nM in assay [2], 6.3 nM in assay [7], 8.8 nM in [8] and 5.9 nM in assay [9]. In addition, in assay [3], the binding result was “no binding (tested: 100 nM)”. Besides, in [6], the Kd came to 36 nM.

B10: anti-FOLR1 heavy chain antibody (HCAb, UniAb) clone ID 352317 (antibody, V domains shown)
VH: EVQLVESGGGLVKPGGSLRLSCAASGFTFSSYSMNWVRQAPGKGLEWVSSISSGSSYIYYADSVKGRFTISRDNAKNSLYLQMNSLRAEDTAVYYCARDVTSGIAAAGSAFNIRGQGTLVTVSS
notes: Heavy chain-only antibody (no light chain), F14 family
B10: the entries for the “fold over background MFI” value in assay [1], in assay [4] and in assay [5] were 711 fold over background, 465 fold over background and 1220 fold over background, respectively. Further, the EC50 is 5 nM in assay [2], 3.3 nM in assay [7], 3.9 nM in assay [8] and 5.1 nM in [9]. In addition, in assay [3], the binding result is on record as “binds”. Besides, in assay [6], the Kd worked out at 8.7 nM.

B11: anti-FOLR1 heavy chain antibody (HCAb, UniAb) clone ID 358457 (antibody, V domains shown)
VH: B10 VH with K13Q, A88D
notes: as for B10
B11: the EC50 in assay [2] amounted to 3 nM; in [10], 2.5 nM; in assay [7] it was 1.1 nM; in assay [8], 3.6 nM; in assay [9] it was 4.6 nM. Besides, the “fold over background MFI” value in [4] was determined as 2520 fold over background; in assay [5] it was 2080 fold over background. Moreover, in assay [6], the Kd is 6.82 nM.

B12: anti-FOLR1 heavy chain antibody (HCAb, UniAb) clone ID 358433 (antibody, V domains shown)
VH: B10 VH with T28I
notes: as for B10
In the case of B12, the EC50 in assay [2] is 3.1 nM; in [10], 3.6 nM; in assay [7] it was 1.3 nM; in [8], 4.1 nM; in assay [9], 5.9 nM. The “fold over background MFI” value in assay [4] came out at 2530 fold over background; in assay [5] it was 1980 fold over background. For the same molecule, the Kd in assay [6] was determined as 6.34 nM.

B13: anti-FOLR1 heavy chain antibody (HCAb, UniAb) clone ID 352368 (antibody, V domains shown)
VH: B10 VH with T28N, S30R, Y32F, S33G, N35T, V37L, S109A
notes: as for B10
Take B13: the results for the “fold over background MFI” value in assay [1], in assay [4] and in assay [5] were 548 fold over background, 179 fold over background and 1230 fold over background, respectively. Further, the EC50 in assay [2] turned out to be 4.3 nM; in assay [7] it was 3.1 nM; in [8], 4.1 nM; in [9] it was 3.8 nM. Also, in [3], the binding result was “binds”. The Kd in assay [6] is 32.9 nM.

B14: anti-FOLR1 heavy chain antibody (HCAb, UniAb) clone ID 352477 (antibody, V domains shown)
VH: B10 VH with K76R
notes: as for B10
For B14, the results for the “fold over background MFI” value in assay [1], in assay [4] and in [5] were 1960 fold over background, 362 fold over background and 1590 fold over background, respectively. Further, the EC50 in assay [2] turned out to be 4.2 nM; in assay [7], 2.4 nM; in assay [8], 5 nM; in assay [9], 4.2 nM. For the same molecule, the binding result in assay [3] is reported as “binds”. Also, the Kd in assay [6] amounted to 12.5 nM.
